Measurements: patent publication US20100184658A1 (published 2010)

Assays:
Assay in all cases: cell-based or functional assay
ABL1 G250E = ABL1 G250E (UniProt P00519 1-1130, limits assumed)
PLK1 Polo-like kinase 1 = PLK1 Polo-like kinase 1 (UniProt P53350 1-603, limits assumed)
PRKCH (PKC eta) = PRKCH (PKC eta) (UniProt P24723 1-683, limits assumed)
CLK3 = CLK3 (UniProt P49761 1-490, limits assumed)
[1] = target: MAP3K9 (MLK1) Mitogen-activated protein kinase kinase kinase 9 (UniProt P80192 132-413, limits assumed)
MAP3K9 (MLK1) Mitogen-activated protein kinase kinase kinase 9, sequence (P80192 132-413 limits assumed): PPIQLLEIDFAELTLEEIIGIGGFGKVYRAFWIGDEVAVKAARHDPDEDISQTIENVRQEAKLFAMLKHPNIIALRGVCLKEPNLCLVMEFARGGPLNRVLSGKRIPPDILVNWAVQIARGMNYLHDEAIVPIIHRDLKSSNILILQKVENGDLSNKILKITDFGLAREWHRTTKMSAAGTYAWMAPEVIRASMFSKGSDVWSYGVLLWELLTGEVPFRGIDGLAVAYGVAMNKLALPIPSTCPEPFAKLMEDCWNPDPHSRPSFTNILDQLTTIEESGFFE

[2] = target: MINK1 Misshapen-like kinase 1 (UniProt Q8N4C8 1-320, limits assumed)
PRKX = target: T1, PRKX (UniProt P51817 1-358, limits assumed)
T1 sequence (looked up): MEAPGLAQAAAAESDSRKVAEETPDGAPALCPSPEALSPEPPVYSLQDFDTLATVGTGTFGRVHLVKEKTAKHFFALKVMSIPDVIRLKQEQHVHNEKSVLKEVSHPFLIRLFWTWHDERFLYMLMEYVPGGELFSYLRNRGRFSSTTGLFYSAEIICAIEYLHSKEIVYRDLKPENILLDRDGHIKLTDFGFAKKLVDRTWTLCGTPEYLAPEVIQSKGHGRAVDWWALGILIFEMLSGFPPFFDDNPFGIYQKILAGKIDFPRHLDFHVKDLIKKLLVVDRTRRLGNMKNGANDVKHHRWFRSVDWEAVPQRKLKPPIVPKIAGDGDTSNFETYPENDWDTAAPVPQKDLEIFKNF

[3] = target: T2, SGKL (SGK3) Serum/glucocorticoid regulated kinase family, member 3 (UniProt Q96BR1 1-496, limits assumed)
T2 sequence (looked up): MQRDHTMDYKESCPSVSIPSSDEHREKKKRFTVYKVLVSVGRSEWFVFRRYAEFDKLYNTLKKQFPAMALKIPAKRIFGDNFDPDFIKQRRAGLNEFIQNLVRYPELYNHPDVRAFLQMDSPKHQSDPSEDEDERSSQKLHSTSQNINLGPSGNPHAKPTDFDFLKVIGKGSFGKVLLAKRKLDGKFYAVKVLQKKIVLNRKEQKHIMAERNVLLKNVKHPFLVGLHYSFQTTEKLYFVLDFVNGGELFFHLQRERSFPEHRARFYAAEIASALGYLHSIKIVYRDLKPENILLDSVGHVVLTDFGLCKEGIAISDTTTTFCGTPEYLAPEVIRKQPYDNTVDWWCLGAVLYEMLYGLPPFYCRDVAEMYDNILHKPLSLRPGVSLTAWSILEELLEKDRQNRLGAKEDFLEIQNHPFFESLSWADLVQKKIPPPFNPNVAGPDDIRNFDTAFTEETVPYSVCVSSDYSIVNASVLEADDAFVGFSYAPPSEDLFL

[4] = target: RPS6KA4 (MSK2) Ribosomal protein S6 kinase, 90 kDa, polypeptide 4 (UniProt O75676 1-772, limits assumed)
[5] = target: STK25 (YSK1) Serine/threonine kinase 25 (STE20 homolog, yeast) (UniProt O00506 1-426, limits assumed)
STK25 (YSK1) Serine/threonine kinase 25 (STE20 homolog, yeast), sequence (O00506 whole entry): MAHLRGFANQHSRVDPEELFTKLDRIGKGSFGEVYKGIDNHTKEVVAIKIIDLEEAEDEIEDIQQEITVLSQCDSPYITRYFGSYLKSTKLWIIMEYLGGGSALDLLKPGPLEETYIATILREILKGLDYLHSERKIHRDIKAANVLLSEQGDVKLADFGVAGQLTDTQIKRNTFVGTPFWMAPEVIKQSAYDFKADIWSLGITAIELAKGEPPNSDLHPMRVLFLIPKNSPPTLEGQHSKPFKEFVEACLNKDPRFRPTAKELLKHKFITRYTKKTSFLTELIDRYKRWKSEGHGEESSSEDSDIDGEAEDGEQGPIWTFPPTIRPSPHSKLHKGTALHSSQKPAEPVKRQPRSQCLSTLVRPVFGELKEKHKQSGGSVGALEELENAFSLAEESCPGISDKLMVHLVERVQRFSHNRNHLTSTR

[6] = target: RPS6KA3 (RSK2) Ribosomal protein S6 kinase, 90 kDa, polypeptide 3 (UniProt P51812 1-740, limits assumed)
RPS6KA3 (RSK2) Ribosomal protein S6 kinase, 90 kDa, polypeptide 3, sequence (P51812 whole entry): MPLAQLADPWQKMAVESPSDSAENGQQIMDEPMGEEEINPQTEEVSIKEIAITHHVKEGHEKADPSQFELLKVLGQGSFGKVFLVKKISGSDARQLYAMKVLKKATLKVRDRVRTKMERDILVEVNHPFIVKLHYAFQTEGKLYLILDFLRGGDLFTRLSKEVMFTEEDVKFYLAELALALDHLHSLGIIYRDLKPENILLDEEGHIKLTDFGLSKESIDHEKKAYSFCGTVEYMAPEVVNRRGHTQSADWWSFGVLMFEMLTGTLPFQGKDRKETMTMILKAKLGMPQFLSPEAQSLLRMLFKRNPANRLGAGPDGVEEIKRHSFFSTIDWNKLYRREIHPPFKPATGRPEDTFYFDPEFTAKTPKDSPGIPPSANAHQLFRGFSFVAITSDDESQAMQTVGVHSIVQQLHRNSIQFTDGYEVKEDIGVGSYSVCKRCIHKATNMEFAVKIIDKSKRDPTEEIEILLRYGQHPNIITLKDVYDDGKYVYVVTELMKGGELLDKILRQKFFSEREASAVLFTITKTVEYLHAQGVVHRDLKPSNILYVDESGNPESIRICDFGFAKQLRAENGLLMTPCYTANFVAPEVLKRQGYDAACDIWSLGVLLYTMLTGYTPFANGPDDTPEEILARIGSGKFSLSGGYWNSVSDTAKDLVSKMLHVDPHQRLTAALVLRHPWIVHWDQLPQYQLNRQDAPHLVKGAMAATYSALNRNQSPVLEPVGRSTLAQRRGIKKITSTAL

[7] = target: T3, STK3 (MST2) Serine/threonine kinase 3 (STE20 homolog, yeast) (UniProt Q13188 1-491, limits assumed)
T3 sequence (looked up): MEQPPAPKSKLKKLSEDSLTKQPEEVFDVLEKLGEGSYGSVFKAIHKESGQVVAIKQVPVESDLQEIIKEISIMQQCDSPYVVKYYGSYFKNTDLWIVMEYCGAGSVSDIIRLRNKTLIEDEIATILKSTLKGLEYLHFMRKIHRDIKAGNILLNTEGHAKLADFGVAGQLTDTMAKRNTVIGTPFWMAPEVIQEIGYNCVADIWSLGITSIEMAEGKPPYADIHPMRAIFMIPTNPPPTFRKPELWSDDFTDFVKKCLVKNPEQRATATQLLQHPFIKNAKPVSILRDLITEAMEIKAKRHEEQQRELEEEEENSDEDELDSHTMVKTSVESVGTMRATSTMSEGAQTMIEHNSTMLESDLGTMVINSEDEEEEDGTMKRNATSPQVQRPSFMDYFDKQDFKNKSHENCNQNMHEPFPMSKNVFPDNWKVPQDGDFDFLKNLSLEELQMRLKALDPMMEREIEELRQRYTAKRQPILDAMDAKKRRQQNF

CAMK2A (CaMKII alpha) = CAMK2A (CaMKII alpha) (UniProt Q9UQM7 1-478, limits assumed)
PRKCG (PKC gamma) = PRKCG (PKC gamma) (UniProt P05129 1-697, limits assumed)
PASK = PASK (UniProt Q96RG2 879-1323, limits assumed)
ROCK2 = ROCK2 (UniProt O75116 5-554, limits assumed)
ROCK2, sequence (O75116 5-554 limits assumed): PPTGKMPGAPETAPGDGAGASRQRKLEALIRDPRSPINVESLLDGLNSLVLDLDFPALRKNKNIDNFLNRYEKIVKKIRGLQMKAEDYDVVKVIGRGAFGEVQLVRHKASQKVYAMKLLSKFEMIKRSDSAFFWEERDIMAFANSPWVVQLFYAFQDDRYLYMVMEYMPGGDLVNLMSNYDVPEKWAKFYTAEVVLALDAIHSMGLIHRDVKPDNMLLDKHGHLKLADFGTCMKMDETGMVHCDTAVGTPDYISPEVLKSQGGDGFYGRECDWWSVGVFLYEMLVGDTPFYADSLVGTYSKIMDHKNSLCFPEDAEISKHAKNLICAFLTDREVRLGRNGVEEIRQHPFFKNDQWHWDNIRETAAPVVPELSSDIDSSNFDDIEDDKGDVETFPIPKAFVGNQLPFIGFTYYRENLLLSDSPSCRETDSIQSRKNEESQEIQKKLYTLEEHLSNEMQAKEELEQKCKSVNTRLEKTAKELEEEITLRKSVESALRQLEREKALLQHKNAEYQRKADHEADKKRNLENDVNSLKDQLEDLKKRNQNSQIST

ABL1 E255K = ABL1 E255K (UniProt P00519 1-1130, limits assumed)
ABL1 E255K, sequence (P00519 whole entry E255K): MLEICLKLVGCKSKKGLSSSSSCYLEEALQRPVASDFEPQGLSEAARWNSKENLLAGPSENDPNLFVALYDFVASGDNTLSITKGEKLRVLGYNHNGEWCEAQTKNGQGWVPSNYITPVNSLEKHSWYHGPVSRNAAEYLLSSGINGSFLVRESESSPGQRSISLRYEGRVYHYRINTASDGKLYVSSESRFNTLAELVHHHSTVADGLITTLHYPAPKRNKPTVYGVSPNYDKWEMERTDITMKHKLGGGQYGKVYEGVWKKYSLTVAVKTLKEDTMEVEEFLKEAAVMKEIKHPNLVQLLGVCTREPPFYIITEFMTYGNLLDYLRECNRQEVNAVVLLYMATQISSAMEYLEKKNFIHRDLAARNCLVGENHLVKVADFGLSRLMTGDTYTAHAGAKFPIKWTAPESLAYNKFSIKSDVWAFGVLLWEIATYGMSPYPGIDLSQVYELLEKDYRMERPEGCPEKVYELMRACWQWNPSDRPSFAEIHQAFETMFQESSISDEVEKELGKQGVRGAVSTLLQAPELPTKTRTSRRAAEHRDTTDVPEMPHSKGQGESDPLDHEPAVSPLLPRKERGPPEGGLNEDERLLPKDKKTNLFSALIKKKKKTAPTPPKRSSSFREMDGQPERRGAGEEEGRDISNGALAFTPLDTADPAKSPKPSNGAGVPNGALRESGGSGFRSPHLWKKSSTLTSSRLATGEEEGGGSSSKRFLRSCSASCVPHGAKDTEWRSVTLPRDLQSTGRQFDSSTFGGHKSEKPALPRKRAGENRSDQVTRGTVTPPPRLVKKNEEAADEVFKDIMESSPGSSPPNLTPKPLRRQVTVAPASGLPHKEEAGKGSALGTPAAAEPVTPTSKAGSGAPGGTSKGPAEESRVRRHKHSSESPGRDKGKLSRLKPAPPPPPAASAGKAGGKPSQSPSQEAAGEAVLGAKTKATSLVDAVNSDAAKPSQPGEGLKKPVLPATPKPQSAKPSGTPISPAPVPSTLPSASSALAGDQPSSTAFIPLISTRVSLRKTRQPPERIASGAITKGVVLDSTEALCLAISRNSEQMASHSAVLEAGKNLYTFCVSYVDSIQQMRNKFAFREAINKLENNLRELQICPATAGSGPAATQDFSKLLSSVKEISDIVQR

MYLK2 (skMLCK) = MYLK2 (skMLCK) (UniProt Q9H1R3 1-596, limits assumed)
MYLK2 (skMLCK), sequence (Q9H1R3 whole entry): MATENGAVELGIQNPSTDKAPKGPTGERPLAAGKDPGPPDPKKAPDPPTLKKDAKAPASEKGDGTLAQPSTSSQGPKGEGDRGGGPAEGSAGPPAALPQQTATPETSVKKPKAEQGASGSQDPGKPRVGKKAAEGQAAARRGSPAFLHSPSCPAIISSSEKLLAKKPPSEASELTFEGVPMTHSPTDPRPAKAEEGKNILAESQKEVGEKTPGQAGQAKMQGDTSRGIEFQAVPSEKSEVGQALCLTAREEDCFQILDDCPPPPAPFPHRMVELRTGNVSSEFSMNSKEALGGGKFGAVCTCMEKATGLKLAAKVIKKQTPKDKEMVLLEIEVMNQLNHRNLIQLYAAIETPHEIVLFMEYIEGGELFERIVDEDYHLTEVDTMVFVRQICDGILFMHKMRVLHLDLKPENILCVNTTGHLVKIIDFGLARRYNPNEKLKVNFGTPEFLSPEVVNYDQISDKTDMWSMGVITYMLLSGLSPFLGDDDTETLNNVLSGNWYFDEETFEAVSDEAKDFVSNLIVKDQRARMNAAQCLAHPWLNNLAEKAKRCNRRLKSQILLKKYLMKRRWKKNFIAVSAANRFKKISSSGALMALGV

PKN1 (PRK1) = PKN1 (PRK1) (UniProt Q16512 1-942, limits assumed)
GRK6 = GRK6 (UniProt P43250 1-576, limits assumed)

PRKCH (PKC eta), sequence (P24723 whole entry): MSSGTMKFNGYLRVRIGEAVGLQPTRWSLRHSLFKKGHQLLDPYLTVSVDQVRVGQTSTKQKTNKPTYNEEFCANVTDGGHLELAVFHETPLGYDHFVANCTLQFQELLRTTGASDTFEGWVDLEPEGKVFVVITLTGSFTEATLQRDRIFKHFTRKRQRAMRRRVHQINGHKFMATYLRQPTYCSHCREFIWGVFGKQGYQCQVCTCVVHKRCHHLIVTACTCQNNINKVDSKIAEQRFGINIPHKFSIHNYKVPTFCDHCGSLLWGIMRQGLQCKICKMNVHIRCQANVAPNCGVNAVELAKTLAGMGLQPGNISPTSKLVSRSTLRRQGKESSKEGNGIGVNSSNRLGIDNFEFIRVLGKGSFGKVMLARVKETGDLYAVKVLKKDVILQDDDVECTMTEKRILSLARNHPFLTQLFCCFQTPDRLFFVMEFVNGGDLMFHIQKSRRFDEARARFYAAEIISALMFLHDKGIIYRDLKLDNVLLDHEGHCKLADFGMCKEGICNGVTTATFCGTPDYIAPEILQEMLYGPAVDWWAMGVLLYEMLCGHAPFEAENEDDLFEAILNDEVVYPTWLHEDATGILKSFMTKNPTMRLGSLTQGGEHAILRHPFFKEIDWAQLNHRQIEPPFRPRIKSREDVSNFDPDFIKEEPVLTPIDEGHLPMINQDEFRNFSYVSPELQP
ABL1 G250E, sequence (P00519 whole entry G250E): as the sequence (P00519 whole entry E255K) above, with G250E, K255E counted along it
CLK3, sequence (P49761 whole entry): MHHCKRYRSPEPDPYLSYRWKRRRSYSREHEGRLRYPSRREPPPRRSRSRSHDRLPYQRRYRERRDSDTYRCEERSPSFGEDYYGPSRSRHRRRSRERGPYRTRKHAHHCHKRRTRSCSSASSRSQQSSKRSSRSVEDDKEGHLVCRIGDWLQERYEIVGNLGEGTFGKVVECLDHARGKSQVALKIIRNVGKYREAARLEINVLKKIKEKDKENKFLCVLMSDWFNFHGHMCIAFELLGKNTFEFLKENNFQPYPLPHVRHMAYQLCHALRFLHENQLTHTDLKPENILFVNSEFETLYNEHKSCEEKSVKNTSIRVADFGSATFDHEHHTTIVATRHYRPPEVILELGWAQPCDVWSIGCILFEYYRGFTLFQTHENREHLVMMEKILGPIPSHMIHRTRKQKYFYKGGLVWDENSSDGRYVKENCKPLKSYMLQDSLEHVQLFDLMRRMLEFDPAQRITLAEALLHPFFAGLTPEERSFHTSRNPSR

## SGRPPMIVWFNRPFLIAVSHTHGQTILFMAKVINPVGA [D3 peptide]
ABL1 G250E
  % Inhibition mean: 50.7%
PLK1 Polo-like kinase 1
  % Inhibition mean: 51%
PRKCH (PKC eta)
  % Inhibition mean: 46.5%
CLK3
  % Inhibition mean: 46%
[1]
  % Inhibition mean: 101%
[2]
  % Inhibition mean: 101%
PRKX
  % Inhibition mean: 100%
[3]
  % Inhibition mean: 97%
[4]
  % Inhibition mean: 96.8%
[5]
  % Inhibition mean: 93.1%
[6]
  % Inhibition mean: 93%
[7]
  % Inhibition mean: 90.4%
CAMK2A (CaMKII alpha)
  % Inhibition mean: 82.6%
PRKCG (PKC gamma)
  % Inhibition mean: 81%
PASK
  % Inhibition mean: 80.8%
ROCK2
  % Inhibition mean: 66.7%
ABL1 E255K
  % Inhibition mean: 65.6%
MYLK2 (skMLCK)
  % Inhibition mean: 64.6%
PKN1 (PRK1)
  % Inhibition mean: 64%
GRK6
  % Inhibition mean: 57.1%
